{"source": "patent US20050261179", "key": {"[1]": {"system": "adrenomedullin (synthetic human AM)"}, "[2]": {"biological_target": "human complement factor H (UniProt P08603)", "sequence (P08603 19-1231)": "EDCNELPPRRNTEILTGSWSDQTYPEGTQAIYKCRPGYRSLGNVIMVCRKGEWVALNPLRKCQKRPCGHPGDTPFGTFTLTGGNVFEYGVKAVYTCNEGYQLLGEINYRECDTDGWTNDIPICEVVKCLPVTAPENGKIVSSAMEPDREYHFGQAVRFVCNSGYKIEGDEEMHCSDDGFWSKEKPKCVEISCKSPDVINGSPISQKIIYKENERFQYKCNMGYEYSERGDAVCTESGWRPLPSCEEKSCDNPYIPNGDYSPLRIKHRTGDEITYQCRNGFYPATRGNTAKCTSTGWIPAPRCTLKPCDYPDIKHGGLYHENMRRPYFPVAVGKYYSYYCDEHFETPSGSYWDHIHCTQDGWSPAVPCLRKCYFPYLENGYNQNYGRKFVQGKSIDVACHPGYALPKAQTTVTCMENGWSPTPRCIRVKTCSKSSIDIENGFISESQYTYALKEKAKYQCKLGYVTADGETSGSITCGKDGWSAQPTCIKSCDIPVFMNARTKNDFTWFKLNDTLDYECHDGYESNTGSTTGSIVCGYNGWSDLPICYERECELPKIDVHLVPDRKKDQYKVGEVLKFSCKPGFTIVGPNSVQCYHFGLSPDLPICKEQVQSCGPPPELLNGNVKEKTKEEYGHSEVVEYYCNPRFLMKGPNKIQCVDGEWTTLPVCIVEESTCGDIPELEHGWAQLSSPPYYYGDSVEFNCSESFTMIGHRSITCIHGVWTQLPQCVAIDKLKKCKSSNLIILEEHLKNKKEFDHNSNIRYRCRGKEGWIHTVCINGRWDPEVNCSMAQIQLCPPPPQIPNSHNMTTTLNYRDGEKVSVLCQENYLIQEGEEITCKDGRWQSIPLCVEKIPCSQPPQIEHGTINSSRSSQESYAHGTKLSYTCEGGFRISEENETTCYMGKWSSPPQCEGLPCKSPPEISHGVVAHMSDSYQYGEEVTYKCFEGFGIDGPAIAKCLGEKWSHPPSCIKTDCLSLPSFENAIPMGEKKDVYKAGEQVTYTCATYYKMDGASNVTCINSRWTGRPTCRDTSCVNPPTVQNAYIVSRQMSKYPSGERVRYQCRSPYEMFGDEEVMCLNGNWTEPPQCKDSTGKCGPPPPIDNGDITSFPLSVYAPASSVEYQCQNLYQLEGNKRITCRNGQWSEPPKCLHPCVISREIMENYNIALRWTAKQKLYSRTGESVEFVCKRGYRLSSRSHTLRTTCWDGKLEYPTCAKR"}}, "data": [{"substance": "human recombinant MMP-9", "values": [{"measurement": "degradation of synthetic AM (gel)", "setting": "[1]", "result": "The resistance of AM to degradation by MMP-9"}, {"measurement": "degradation of factor H (gel)", "setting": "[2]", "result": "is not a substrate for either one of the MMPs"}]}]}
